Sequences and labels used below:
B1: CDK5 regulatory subunit-associated protein 3 (Homo sapiens), Q96JB5 (parent)
chain: MEDHQHVPIDIQTSKLLDWLVDRRHCSLKWQSLVLTIREKINAAIQDMPESEEIAQLLSGSYIHYFHCLRILDLLKGTEASTKNIFGRYSSQRMKDWQEIIALYEKDNTYLVELSSLLVRNVNYEIPSLKKQIAKCQQLQQEYSRKEEECQAGAAEMREQFYHSCKQYGITGENVRGELLALVKDLPSQLAEIGAAAQQSLGEAIDVYQASVGFVCESPTEQVLPMLRFVQKRGNSTVYEWRTGTEPSVVERPHLEELPEQVAEDAIDWGDFGVEAVSEGTDSGISAEAAGIDWGIFPESDSKDPGGDGIDWGDDAVALQITVLEAGTQAPEGVARGPDALTLLEYTETRNQFLDELMELEIFLAQRAVELSEEADVLSVSQFQLAPAILQGQTKEKMVTMVSVLEDLIGKLTSLQLQHLFMILASPRYVDRVTEFLQQKLKQSQLLALKKELMVQKQQEALEEQAALEPKLDLLLEKTKELQKLIEADISKRYSGRPVNLMGTSL
partner: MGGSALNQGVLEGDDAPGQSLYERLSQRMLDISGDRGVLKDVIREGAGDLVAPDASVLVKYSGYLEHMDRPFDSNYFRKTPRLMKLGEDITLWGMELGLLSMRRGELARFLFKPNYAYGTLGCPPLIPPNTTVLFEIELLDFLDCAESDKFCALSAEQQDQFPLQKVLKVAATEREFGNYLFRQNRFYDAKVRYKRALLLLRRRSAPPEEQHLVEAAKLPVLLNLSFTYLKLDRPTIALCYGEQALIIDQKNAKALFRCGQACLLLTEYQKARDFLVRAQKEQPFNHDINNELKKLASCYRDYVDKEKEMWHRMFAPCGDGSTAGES
B2: Protein LDOC1 (Homo sapiens), O95751 (parent)
chain: MVDELVLLLHALLMRHRALSIENSQLMEQLRLLVCERASLLRQVRPPSCPVPFPETFNGESSRLPEFIVQTASYMLVNENRFCNDAMKVAFLISLLTGEAEEWVVPYIEMDSPILGDYRAFLDEMKQCFGWDDDEDDDDEEEEDDY
partner: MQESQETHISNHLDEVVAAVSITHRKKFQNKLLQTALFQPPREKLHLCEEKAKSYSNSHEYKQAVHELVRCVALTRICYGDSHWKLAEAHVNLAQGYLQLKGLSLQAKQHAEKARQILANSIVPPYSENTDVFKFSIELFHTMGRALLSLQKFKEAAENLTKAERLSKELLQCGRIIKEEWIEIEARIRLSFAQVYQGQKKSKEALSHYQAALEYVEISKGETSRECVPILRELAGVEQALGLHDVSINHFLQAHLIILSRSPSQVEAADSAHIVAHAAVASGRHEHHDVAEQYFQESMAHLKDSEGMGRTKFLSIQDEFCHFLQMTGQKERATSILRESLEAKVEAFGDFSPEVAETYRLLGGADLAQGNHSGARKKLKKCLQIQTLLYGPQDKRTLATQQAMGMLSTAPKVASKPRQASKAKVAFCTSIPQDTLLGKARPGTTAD
B3: Hyaluronan mediated motility receptor (Homo sapiens), O75330 (parent)
chain: MSFPKAPLKRFNDPSGCAPSPGAYDVKTLEVLKGPVSFQKSQRFKQQKESKQNLNVDKDTTLPASARKVKSSESKESQKNDKDLKILEKEIRVLLQERGAQDRRIQDLETELEKMEARLNAALREKTSLSANNATLEKQLIELTRTNELLKSKFSENGNQKNLRILSLELMKLRNKRETKMRGMMAKQEGMEMKLQVTQRSLEESQGKIAQLEGKLVSIEKEKIDEKSETEKLLEYIEEISCASDQVEKYKLDIAQLEENLKEKNDEILSLKQSLEENIVILSKQVEDLNVKCQLLEKEKEDHVNRNREHNENLNAEMQNLKQKFILEQQEREKLQQKELQIDSLLQQEKELSSSLHQKLCSFQEEMVKEKNLFEEELKQTLDELDKLQQKEEQAERLVKQLEEEAKSRAEELKLLEEKLKGKEAELEKSSAAHTQATLLLQEKYDSMVQSLEDVTAQFESYKALTASEIEDLKLENSSLQEKAAKAGKNAEDVQHQILATESSNQEYVRMLLDLQTKSALKETEIKEITVSFLQKITDLQNQLKQQEEDFRKQLEDEEGRKAEKENTTAELTEEINKWRLLYEELYNKTKPFQLQLDAFEVEKQALLNEHGAAQEQLNKIRDSYAKLLGHQNLKQKIKHVVKLKDENSQLKSEVSKLRCQLAKKKQSETKLQEELNKVLGIKHFDPSKAFHHESKENFALKTPLKEGNTNCYRAPMECQESWK
B4: SKA complex subunit 1 (Homo sapiens), Q96BD8 (parent)
chain: MASSDLEQLCSHVNEKIGNIKKTLSLRNCGQEPTLKTVLNKIGDEIIVINELLNKLELEIQYQEQTNNSLKELCESLEEDYKDIEHLKENVPSHLPQVTVTQSCVKGSDLDPEEPIKVEEPEPVKKPPKEQRSIKEMPFITCDEFNGVPSYMKSRLTYNQINDVIKEINKAVISKYKILHQPKKSMNSVTRNLYHRFIDEETKDTKGRYFIVEADIKEFTTLKADKKFHVLLNILRHCRRLSEVRGGGLTRYVIT
partner: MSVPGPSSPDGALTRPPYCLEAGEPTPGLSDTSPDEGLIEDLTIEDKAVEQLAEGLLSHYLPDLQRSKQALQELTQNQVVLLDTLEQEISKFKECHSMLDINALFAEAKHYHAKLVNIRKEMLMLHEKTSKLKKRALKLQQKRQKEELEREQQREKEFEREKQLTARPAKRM
B5: WASH complex subunit 3 (Homo sapiens), Q9Y3C0 (parent)
chain: MDEDGLPLMGSGIDLTKVPAIQQKRTVAFLNQFVVHTVQFLNRFSTVCEEKLADLSLRIQQIETTLNILDAKLSSIPGLDDVTVEVSPLNVTSVTNGAHPEATSEQPQQNSTQDSGLQESEVSAENILTVAKDPRYARYLKMVQVGVPVMAIRNKMISEGLDPDLLERPDAPVPDGESEKTVEESSDSESSFSD
partner: B4 partner
B6: Tuftelin-interacting protein 11 (Homo sapiens), Q9UBB9 (parent)
chain: MSLSHLYRDGEGRIDDDDDERENFEITDWDLQNEFNPNRQRHWQTKEEATYGVWAERDSDDERPSFGGKRARDYSAPVNFISAGLKKGAAEEAELEDSDDEEKPVKQDDFPKDFGPRKLKTGGNFKPSQKGFAGGTKSFMDFGSWERHTKGIGQKLLQKMGYVPGRGLGKNAQGIINPIEAKQRKGKGAVGAYGSERTTQSMQDFPVVDSEEEAEEEFQKELSQWRKDPSGSKKKPKYSYKTVEELKAKGRISKKLTAPQKELSQVKVIDMTGREQKVYYSYSQISHKHNVPDDGLPLQSQQLPQSGKEAKAPGFALPELEHNLQLLIDLTEQEIIQNDRQLQYERDMVVNLFHELEKMTEVLDHEERVISNLSKVLEMVEECERRMQPDCSNPLTLDECARIFETLQDKYYEEYRMSDRVDLAVAIVYPLMKEYFKEWDPLKDCTYGTEIISKWKSLLENDQLLSHGGQDLSADAFHRLIWEVWMPFVRNIVTQWQPRNCDPMVDFLDSWVHIIPVWILDNILDQLIFPKLQKEVENWNPLTDTVPIHSWIHPWLPLMQARLEPLYSPIRSKLSSALQKWHPSDSSAKLILQPWKDVFTPGSWEAFMVKNIVPKLGMCLGELVINPHQQHMDAFYWVIDWEGMISVSSLVGLLEKHFFPKWLQVLCSWLSNSPNYEEITKWYLGWKSMFSDQVLAHPSVKDKFNEALDIMNRAVSSNVGAYMQPGARENIAYLTHTERRKDFQYEAMQERREAENMAQRGIGVAASSVPMNFKDLIETKAEEHNIVFMPVIGKRHEGKQLYTFGRIVIYIDRGVVFVQGEKTWVPTSLQSLIDMAK
partner: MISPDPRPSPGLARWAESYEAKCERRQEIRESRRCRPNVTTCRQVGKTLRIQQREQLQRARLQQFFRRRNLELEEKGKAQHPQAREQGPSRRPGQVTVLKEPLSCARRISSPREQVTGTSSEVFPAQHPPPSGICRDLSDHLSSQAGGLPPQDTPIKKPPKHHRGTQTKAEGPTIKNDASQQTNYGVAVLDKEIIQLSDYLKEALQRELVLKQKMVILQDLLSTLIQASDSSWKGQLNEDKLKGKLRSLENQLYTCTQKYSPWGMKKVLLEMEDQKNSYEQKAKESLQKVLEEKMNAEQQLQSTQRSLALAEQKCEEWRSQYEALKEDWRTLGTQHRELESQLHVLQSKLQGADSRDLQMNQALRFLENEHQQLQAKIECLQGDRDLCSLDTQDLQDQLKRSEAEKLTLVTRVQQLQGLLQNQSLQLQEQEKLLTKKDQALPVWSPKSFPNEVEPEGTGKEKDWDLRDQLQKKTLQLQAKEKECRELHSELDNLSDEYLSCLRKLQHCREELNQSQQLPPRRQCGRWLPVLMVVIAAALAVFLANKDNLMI
B7: Ribose-phosphate pyrophosphokinase 1 (Homo sapiens), P60891 (parent)
chain: MPNIKIFSGSSHQDLSQKIADRLGLELGKVVTKKFSNQETCVEIGESVRGEDVYIVQSGCGEINDNLMELLIMINACKIASASRVTAVIPCFPYARQDKKDKSRAPISAKLVANMLSVAGADHIITMDLHASQIQGFFDIPVDNLYAEPAVLKWIRENISEWRNCTIVSPDAGGAKRVTSIADRLNVDFALIHKERKKANEVDRMVLVGDVKDRVAILVDDMADTCGTICHAADKLLSAGATRVYAILTHGIFSGPAISRINNACFEAVVVTNTIPQEDKMKHCSKIQVIDISMILAEAIRRTHNGESVSYLFSHVPL
partner: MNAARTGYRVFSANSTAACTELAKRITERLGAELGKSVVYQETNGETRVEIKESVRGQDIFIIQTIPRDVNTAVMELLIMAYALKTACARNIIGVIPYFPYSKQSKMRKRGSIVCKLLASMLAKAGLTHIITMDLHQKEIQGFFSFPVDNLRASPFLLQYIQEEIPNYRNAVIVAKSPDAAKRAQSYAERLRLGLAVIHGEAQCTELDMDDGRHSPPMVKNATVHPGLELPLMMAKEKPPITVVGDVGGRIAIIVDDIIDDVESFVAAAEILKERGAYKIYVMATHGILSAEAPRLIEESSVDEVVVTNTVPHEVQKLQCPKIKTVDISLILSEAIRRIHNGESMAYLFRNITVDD

The values that follow come from IntAct's records for PubMed 31515488.

One assay covers variants of B1. As to conditions: with fkbp6_human FKBP6, O75344.
Consider E173K, for which the “effect of a mutation on the interaction” value was “with no effect”.

The variants in another assay derive from B2. As to conditions: with ttc23_human TTC23, Q5W5X9.
As to L12H, the “effect of a mutation on the interaction” value was “disrupting interaction strength”.

In the next assay the parent is B3. As to conditions: with morn4_human MORN4, Q8NDC4.
morn4_human MORN4, Q8NDC4, sequence (Q8NDC4 whole entry): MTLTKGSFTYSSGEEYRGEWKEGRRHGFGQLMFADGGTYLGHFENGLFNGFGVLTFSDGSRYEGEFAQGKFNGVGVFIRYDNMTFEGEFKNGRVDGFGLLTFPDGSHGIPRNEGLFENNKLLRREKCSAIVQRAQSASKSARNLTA
Regarding S468G, the “effect of a mutation on the interaction” value is given as “with no effect”.

Consider V368A, for which the “effect of a mutation on the interaction” value is “with no effect”.

The next assay covers variants of B4. As to conditions: with bl1s6_human BLOC1S6, Q9UL45.
In the case of V230M, the “effect of a mutation on the interaction” value is “with no effect”.

With H86R, the “effect of a mutation on the interaction” value is “with no effect”.

In a further assay the parent is B5. As to conditions: with bl1s6_human BLOC1S6, Q9UL45.
Regarding F44L, the “effect of a mutation on the interaction” value is on record as “with no effect”.

In another assay the parent is B6. As to conditions: with TRAF3IP3, Q9Y228.
Turning to M140V, the “effect of a mutation on the interaction” value is “with no effect”.

The variants in another assay derive from B7. As to conditions: with kpra_human PRPSAP1, Q14558.
As for D183H, the “effect of a mutation on the interaction” value is recorded as “with no effect”.

In the case of E43D, the “effect of a mutation on the interaction” value is given as “with no effect”.

Variants of B7 are the subject of another assay. As to conditions: with kpra_human PRPSAP1, Q14558. This is another data set of the same source.
Consider D203H, for which the “effect of a mutation on the interaction” value is “with no effect”.
